The values below come from US20040072240A1.

One assay deals with HLA A2.1 molecule (human). Nature of the assay: T2 cells, flow cytometry (BB7.2); reference HIVpol 589.
Conditions: not given
Background: In flow cytometry, cells or beads pass a laser one at a time.
YLIHHNTHL (modifications not checked) [HER-2/neu 466Y1] yielded an RA (relative affinity) of 1.4.
YLQPEQLQV (modifications not checked) [HER-2/neu 391Y1] returned an RA (relative affinity) of 1.3.
On the same count and under the same terms, as for ILLVVVLGV (modifications not checked) [HER-2/neu 661], the figure is over 60; as for MLGTHTMEV (modifications not checked) [gp100 178], 0.3; as for YLEEITGYL (modifications not checked) [HER-2/neu 402Y1], 3.7.
Molecule YLVPQQGFFC (modifications not checked) [HER-2/neu 1023] returned an RA (relative affinity) of 19.6.
As to QLMPYGCLL (modifications not checked) [HER-2/neu 799], the RA (relative affinity) was 1.
The same measure, in the same setting: the same measure for ILATFLAWL (modifications not checked) [mp 530]: 0.8; for FLSTLVHGV (modifications not checked) [mp 876]: 1.2.
On the same count and under the same terms, as for PLTSIISAV (modifications not checked) [HER-2/neu 650], the figure is 1.4; as for VLYRYGSFSV (modifications not checked) [gp100 476], 10.
In turn, RLFFYRKSV (modifications not checked) [mhp 572] showed an RA (relative affinity) of 25.3.
Still for that read-out and setting: as for QLLRSFFHFL (modifications not checked) [mp 545], the figure is 1.8; as for YLQVNSLQTV (modifications not checked) [mhp 988Y1], 2.1; as for DLQVNSLQTV (modifications not checked) [mhp 988], 28.6.
In turn, YLFFYRKSV (modifications not checked) [mhp 572Y1] yielded an RA (relative affinity) of 2.2.
Still for that read-out and setting: as for LLGCAANWIL (modifications not checked) [HBVpol 765], the figure is 2; as for ILAKFLHWL (modifications not checked) [mhp 540], 0.3; as for FLPWHRLFLL (modifications not checked) [Tyrosinase 207], over 50.
On the same count and under the same terms, the same measure for ELVSEFSRM (modifications not checked) [HER-2/neu 971]: over 70; for SLADTNSLAV (modifications not checked) [gp100 570]: 1; for SLFDFFHFL (modifications not checked) [mp 797]: 1.5.
For the molecule KLTGDENFTI (modifications not checked) [Tyrosinase 224], the RA (relative affinity) was over 50.
Still for that read-out and setting: the same measure for TLEEITGYL (modifications not checked) [HER-2/neu 402]: 19; for VLVKSPNHV (modifications not checked) [HER-2/neu 851]: 24.
Take AMLGTHTMEV (modifications not checked) [gp100 177]: the RA (relative affinity) worked out at 0.5.
Same read-out and setting: as for VMAGVGSPYV (modifications not checked) [HER-2/neu 773], the figure is 1.7; as for MLLAVLYCL (modifications not checked) [Tyrosinase 1], over 60; as for FLFWLMDTYV (modifications not checked) [mp 534], 0.2.
LLDGTATLRL (modifications not checked) [gp100 457] yielded an RA (relative affinity) of 1.6.
For ILTVILGVL (modifications not checked) [mart-1 32], the RA (relative affinity) was 21.1.
Turning to HLYQGCQVV (modifications not checked) [HER-2/neu 48], the RA (relative affinity) was 1.7.
On the same count and under the same terms, as for PLQPEQLQV (modifications not checked) [HER-2/neu 391], the figure is over 70.

The same assay, now with this note: remark: other sources report otherwise.
For PLEEELPRL (modifications not checked) [HBVpol 594], the RA (relative affinity) came to 4.2.

A further assay addresses HLA A2.1 molecule (human). Nature of the assay: T2 cells, flow cytometry; P1Y variant against its natural peptide.
Conditions: not given
YLIHHNTHL (modifications not checked) [HER-2/neu 466Y1]: the DC50 Y1-DC50 WT was over 4 h and the RA WT/RA Y1 turned out to be 3.3.
Take YLADTNSLAV (modifications not checked) [gp100 570Y1]: the DC50 Y1-DC50 WT was over 2 h and the RA WT/RA Y1 worked out at 3.4.
For YLGTHTMEV (modifications not checked) [P1Y variant of gp100 178], the DC50 Y1-DC50 WT was found to be 2 h and the RA WT/RA Y1 is 0.8.
In turn, YMLGTHTMEV (modifications not checked) [gp100 177Y1] came in with a DC50 Y1-DC50 WT of 2 h and an RA WT/RA Y1 of 0.6.
On to YLQPEQLQV (modifications not checked) [HER-2/neu 391Y1], for which the DC50 Y1-DC50 WT was over 6 h and the RA WT/RA Y1 stood at 55.5.
Molecule YIFGSLAFL (modifications not checked) [HER-2/neu 369Y1] gave a DC50 Y1-DC50 WT of over 2 h and an RA WT/RA Y1 of 3.9.
YLEEITGYL (modifications not checked) [HER-2/neu 402Y1] yielded a DC50 Y1-DC50 WT of over 2 h and an RA WT/RA Y1 of 5.2.
YLTVILGVL (modifications not checked) [P1Y variant of Mart-1 32] displayed a DC50 Y1-DC50 WT of 2 h and an RA WT/RA Y1 of 16.2.
In the same order, the values of YLPWHRLFLL (modifications not checked) [P1Y variant of Tyrosinase 207] are over 4 h and over 6.4.
In the same order, the values of YLCRWGLLL (modifications not checked) [HER-2/neu 5Y1] are 0 h and 1.1.
The matching figures for YLVKSPNHV (modifications not checked) [P1Y variant of HER-2/neu 851]: 2 h and 3.
In turn, YLLVVVLGV (modifications not checked) [HER-2/neu 661Y1] returned a DC50 Y1-DC50 WT of 2 h and an RA WT/RA Y1 of over 1.5.
The matching figures for YLLAVLYCL (modifications not checked) [P1Y variant of Tyrosinase 1]: over 2 h and over 3.7.
For YLMPYGCLL (modifications not checked) [P1Y variant of HER-2/neu 799], the DC50 Y1-DC50 WT was over 2 h and the RA WT/RA Y1 was determined as 3.9.
YLVSEFSRM (modifications not checked) [P1Y variant of HER-2/neu 971] came in with a DC50 Y1-DC50 WT of 2 h and an RA WT/RA Y1 of 11.6.
Take YLTGDENFTI (modifications not checked) [P1Y variant of Tyrosinase 224]: the DC50 Y1-DC50 WT is over 2 h and the RA WT/RA Y1 is over 5.1.
YLYQGCQVV (modifications not checked) [P1Y variant of HER-2/neu 48] registered a DC50 Y1-DC50 WT of 0 h and an RA WT/RA Y1 of 3.
The matching figures for YMAGVGSPYV (modifications not checked) [P1Y variant of HER-2/neu 773]: 2 h and 2.
Take YLDGTATLRL (modifications not checked) [gp100 457Y1]: the DC50 Y1-DC50 WT was over 2 h and the RA WT/RA Y1 was 2.3.
In the same order, the values of YLYRYGSFSV (modifications not checked) [gp100 476Y1] are 2 h and 4.2.

Another assay concerns the target HLA A2.1 molecule (human). Put plainly: T2 cells, flow cytometry (BB7.2); complex dissociation.
Conditions: not given
Turning to YLIHHNTHL (modifications not checked) [HER-2/neu 466Y1], the DC50 turned out to be 6 h.
The same measure, in the same setting: as for YLQPEQLQV (modifications not checked) [HER-2/neu 391Y1], the figure is 8 h; as for YLEEITGYL (modifications not checked) [HER-2/neu 402Y1], 4 h; as for YLVPQQGFFC (modifications not checked) [HER-2/neu 1023], 4 h.
Still for that read-out and setting: as for ILATFLAWL (modifications not checked) [mp 530], the figure is over 6 h; as for FLSTLVHGV (modifications not checked) [mp 876], over 6 h; as for PLTSIISAV (modifications not checked) [HER-2/neu 650], under 2 h.
The same measure, in the same setting: as for VLYRYGSFSV (modifications not checked) [gp100 476], the figure is 6 h.
As for RLFFYRKSV (modifications not checked) [mhp 572], the DC50 is under 2 h.
Still for that read-out and setting: as for QLLRSFFHFL (modifications not checked) [mp 545], the figure is over 6 h.
In the case of YLQVNSLQTV (modifications not checked) [mhp 988Y1], the DC50 is over 6 h.
The same measure, in the same setting: as for DLQVNSLQTV (modifications not checked) [mhp 988], the figure is under 2 h; as for YLFFYRKSV (modifications not checked) [mhp 572Y1], 5 h.
Same read-out and setting: the same measure for LLGCAANWIL (modifications not checked) [HBVpol 765]: 4 h.
For ILAKFLHWL (modifications not checked) [mhp 540], the DC50 was over 6 h.
On the same count and under the same terms, the same measure for ALCRWGLLL (modifications not checked) [HER-2/neu 5]: over 8 h; for FLPWHRLFLL (modifications not checked) [Tyrosinase 207]: 2 h; for ELVSEFSRM (modifications not checked) [HER-2/neu 971]: 2 h.
Still for that read-out and setting: as for SLFDFFHFL (modifications not checked) [mp 797], the figure is over 6 h; as for KLTGDENFTI (modifications not checked) [Tyrosinase 224], under 2 h; as for TLEEITGYL (modifications not checked) [HER-2/neu 402], under 2 h.
VLVKSPNHV (modifications not checked) [HER-2/neu 851] registered a DC50 of 4 h.
The molecule AMLGTHTMEV (modifications not checked) [gp100 177] came in with a DC50 of over 6 h.
The molecule VMAGVGSPYV (modifications not checked) [HER-2/neu 773] had a DC50 of 6 h.
Same read-out and setting: as for FLFWLMDTYV (modifications not checked) [mp 534], the figure is over 6 h; as for ILTVILGVL (modifications not checked) [mart-1 32], 4 h; as for HLYQGCQVV (modifications not checked) [HER-2/neu 48], over 8 h.
The same measure, in the same setting: as for ALIHHNTHL (modifications not checked) [HER-2/neu 466], the figure is 2 h; as for PLQPEQLQV (modifications not checked) [HER-2/neu 391], 2 h.

Staying with this assay, now noted: remark: other sources report otherwise.
As to PLEEELPRL (modifications not checked) [HBVpol 594], the DC50 is under 2 h.
